The values that follow come from patent US20100099609A1.

Broadly, the Kd is the equilibrium constant for the complex coming apart.

The target of assay [1] is Aβ1-17, the 17 first amino acids of Aβ (UniProt P05067). Put plainly: concentration-dependent binding of recombinant netrin-1 to the peptide; format not stated.
Assay [2] deals with Aβ1-40 (UniProt P05067). Put plainly: concentration-dependent binding of recombinant netrin-1 to the Aβ peptide; format not stated.

As to “recombinant netrin-1 (species not stated) (ligand)”, the values for the Kd in assay [1] and in assay [2] were 30 nM and 22 nM, respectively.
